According to the supplement of paper PMC12042874:
± gives the uncertainty stated by the source.

Test: amyloid nucleation score (Sup35N fusion, yeast selection) (log enrichment); library NNK2; higher = more nucleation; inactive = no reads after selection
Outline: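 Nucleation score is defined as the DiMSum log enrichment of output over input reads, with centring on the mode score of non-aggregating sequences. A minimum of 100 input reads was required for each sequence. Reads came from Illumina sequencing of plasmid inserts from psi-negative yeast expressing Sup35N fused to peptides of 20 random codons, induced with 100 μM copper sulfate for 24 hours and grown 7 days at 30°C on medium lacking adenine and uracil.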

| Substance | amyloid nucleation score |
| --- | --- |
| PSVSRLIESNFCSSIRFFTH | -1.04 ± 0.64 |
| PTAVNSTMYSMYRTGNL | -0.294 ± 0.34 |
| PTDHSTEVSLRFCCRGVSEL | -0.403 ± 0.46 |
| PTGCLMICNSFVIDSVRRRP | 7.812 ± 0.032 |
| PTQVSDLDNLTDCPRGVLPC | -0.735 ± 0.48 |
| PVAQTLAVTFNY | 1.62 ± 0.23 |
| PVGFDHNF | -0.451 ± 0.56 |
| PVKRQGSSAANVPVVW | 0.444 ± 0.44 |
| PVLFYSLYIVNVNTLYMSSG | 7.857 ± 0.051 |
| PVLIVLYDIGSCKERKE | 0.134 ± 0.55 |
| PVRSRWPFSSSLAAVTTYRV | 1.26 ± 0.41 |
| PVWKVERRNSHLLKDIGNSI | 0.325 ± 0.57 |
| PVYRACILIDM | 3.18 ± 0.054 |
| PWPYIWSRCSQTDTVSCEHS | -0.212 ± 0.33 |
| PYGFRVFTLWMLKRDSS | 0.92 ± 0.57 |
| PYNMVVYLGLLSRC | 0.919 ± 0.17 |
| PYQMGSYKLACVQKRPWV | 0.929 ± 0.58 |
| PYRLHMCCWEPLRSMLFMSF | 1.03 ± 0.31 |
| PYSVTEHICGIWLVWCIVGS | -0.418 ± 1.1 |
| PYYYRLDFWHHNKKYNFGYY | -1.16 ± 1.1 |
| QAGALFDKRQGLRYGWVVSM | -0.641 ± 0.41 |
| QCFIWSHRVIVGFHGLGLSA | -0.02 ± 0.79 |
| QCGSSMFRMPVLNWTA | 0.734 ± 0.81 |
| QCKVQCKEWVYNVFAKLQDS | -0.927 ± 1.1 |
| QCSHI | -0.193 ± 0.28 |

| Substance | amyloid nucleation score |
| --- | --- |
| QCVGRASCANSVALYLCSVA | 0.06 ± 0.35 |
| QCVVTVCDRL | 1.73 ± 0.13 |
| QDMQLVIYWSYKLYQVFLRA | -0.357 ± 1.1 |
| QDRVFYIAYVNNVS | 5.606 ± 0.04 |
| QDVGNKLKIWANITCARLWY | -0.067 ± 0.65 |
| QDVSYPSWYPGAFC | -0.675 ± 1.1 |
| QEELSWSS | 0.131 ± 0.25 |
| QETFDFCM | -1.65 ± 0.64 |
| QEVFSN | -0.849 ± 1.1 |
| QFDAWAYMDRTPHGDSYRAA | 0.237 ± 0.65 |
| QFLAIFCSIT | 7.684 ± 0.043 |
| QFNFCKLAGQPLMFEFIDGV | 5.58 ± 0.059 |
| QFNYHNLNLTNFKSLCASTD | 0.019 ± 0.61 |
| QFPTCVHKPSCWDF | 0.291 ± 0.5 |
| QGCPFWYNYVLVYSVSGGIS | 2.36 ± 0.14 |
| QGELYRSANLLFVAEVSSWR | 0.561 ± 0.64 |
| QGKNAFAGLGYMSHKRRMWG | 0.686 ± 0.39 |
| QGLGTRLRDRLTVYCRFTAF | -0.69 ± 0.61 |
| QGRLSPY | inactive |
| QGSKDRSYINKYRDRFCLTD | -0.304 ± 1.1 |
| QGTQWFLLKVSAIVKQLRWT | -0.317 ± 0.79 |
| QHLFFIYSCYTKLGGTLAGE | 0.746 ± 0.2 |
| QHSKD | -1.71 ± 0.77 |
| QHYLKPAMARQSLKGIFDQD | -0.595 ± 0.61 |
| QIASYDFCHRVGRMGPTVCV | -0.165 ± 0.54 |

| Substance | amyloid nucleation score |
| --- | --- |
| QILNGSAY | -0.899 ± 0.3 |
| QILPWGVSMEKL | -0.492 ± 0.41 |
| QIMLAGLRSLDLTVDRTFNS | inactive |
| QIRPLRKRELYSW | 2.64 ± 0.066 |
| QKKLDLQ | -0.673 ± 1 |
| QKLIRWCVKLG | 4.24 ± 0.062 |
| QKMRPNIKVFVYKNVGYNWC | 8.562 ± 0.054 |
| QKYRVL | -0.611 ± 0.32 |
| QKYWCDFSNK | inactive |
| QLDRCLILPWTFSWCMDCVL | 4.92 ± 0.053 |
| QLHSLKKKRKY | -0.625 ± 0.28 |
| QLKSFR | inactive |
| QLLRCNRRSKMLDR | -0.156 ± 0.76 |
| QLNAVDMAKPVVGLFREQSY | -0.15 ± 0.39 |
| QLPFWGWNCMAKLTVTLHSR | 1.22 ± 0.29 |
| QLVGDELMRCSNGAVDKNVA | 1.75 ± 0.24 |
| QLWSAWWHTVKKTGRRWWHR | 0.921 ± 0.19 |
| QMCIVDTNGRN | 0.861 ± 0.6 |
| QMNVSTYSCNLD | 0.044 ± 1.1 |
| QMTLVHK | 1.67 ± 0.39 |
| QNCSHGSLCG | -0.022 ± 0.25 |
| QNKSIDSHAVGGIRVDDYRR | -0.088 ± 0.31 |
| QNLSSLFKVYGTSSC | -0.953 ± 0.38 |
| QQHYLEEPDDESLVRGCRHW | -0.039 ± 0.54 |
| QQVQNAVCGWESYCSQLNRR | -0.241 ± 0.48 |

| Substance | amyloid nucleation score |
| --- | --- |
| QRCISGNTNSVCRLEYRWLM | 0.396 ± 0.44 |
| QRLVSLYFRLSDGHMD | 3.3 ± 0.06 |
| QRPAGYHQTLSVARQRLRPD | -0.73 ± 0.76 |
| QRVSRYNLLRARPGKIAEHF | inactive |
| QSFNVCCWLGEMDVLYSSIT | 8.997 ± 0.038 |
| QSGFEVSCLSDMDSCYRSRN | 0.509 ± 0.31 |
| QSLSSYHLNFSALRSVPWP | 0.043 ± 0.38 |
| QSLSTKRRSVFFAGHQARGK | -0.42 ± 0.64 |
| QSQSSNCYDFIRTNDRKSIC | inactive |
| QSRQFLSVYFYLFFLFFSFL | inactive |
| QSVYFILNNFKWFPGSTGM | 7.062 ± 0.048 |
| QSYMSGKYVVLVQRGEVFSF | -1.21 ± 0.49 |
| QTFDYW | 0.256 ± 0.74 |
| QTPIGK | -0.66 ± 1.1 |
| QVCDRILTWSRLPLSISRVR | 0.062 ± 0.79 |
| QVKFLRDFEGFCMMMKHSSR | -0.395 ± 0.26 |
| QVLVWQHMGRSTVLMLY | -0.58 ± 0.55 |
| QVSLMKVGWITMTPLGLHSL | 4.03 ± 0.069 |
| QVVEYN | -0.047 ± 0.33 |
| QVWSFDGCS | -0.15 ± 0.4 |
| QWLKTVSLS | 0.449 ± 0.8 |
| QWMRSWNDTGRAES | 2.13 ± 0.1 |
| QWMVLQSDRGAEMIARA | 1.29 ± 0.2 |
| QWRFGRG | 1.16 ± 0.26 |
| QWWRYS | 1.17 ± 0.41 |

| Substance | amyloid nucleation score |
| --- | --- |
| QYSYGWHLRTIRIRRTCTGS | 1.15 ± 0.31 |
| RAACFSAAHRTDWTWPDGDM | 2.49 ± 0.19 |
| RALLCGSDVSKRNHGRSFVF | 0.05 ± 1 |
| RALLRFMLWFCEIPD | 0.94 ± 0.74 |
| RALVD | -0.548 ± 1.1 |
| RAMHQDSVFVRWVEPPYCWC | -0.024 ± 1 |
| RAPVSWRLK | 0.267 ± 0.42 |
| RASANYRSSYFERSPDVVRE | 3.63 ± 0.14 |
| RAVDDYRE | 0.88 ± 0.3 |
| RCIDSVLIMHITYFAAFGKL | 5.08 ± 0.099 |
| RCIYWHVTVIFIMDIWVRTY | 0.415 ± 0.17 |
| RCKCNAIEVT | 0.565 ± 0.2 |
| RCLVREISNPDGSDSIIWLR | -0.574 ± 0.55 |
| RCNMLDRYPSVGRNPVLMVV | 0.063 ± 1.1 |
| RCQTFLGKETPSFYRKIVKF | -1.02 ± 0.55 |
| RCSGVP | 0.908 ± 0.23 |
| RCTGDLGRVARFWYETVKLN | -0.066 ± 0.39 |
| RCVGNCMMSLRAEYD | 2.8 ± 0.079 |
| RCVTERFPDM | 0.408 ± 0.5 |
| RCVYNTKVREMPVLVGLRQD | inactive |
| RDIRWIYEDTLISSGIWRSL | 2.62 ± 0.11 |
| RDISIMHRRRMNGLFNY | inactive |
| RDMVTVVCTWEKWCCRFPDL | 0.063 ± 0.21 |
| RDNFLNEY | -0.953 ± 0.36 |
| RDREIVQSLLHVLSQASLFV | -0.456 ± 0.35 |

| Substance | amyloid nucleation score |
| --- | --- |
| RDSKFRMPLKWKAFFMGVER | 1.17 ± 0.38 |
| RDSQWGLSRKDFSHACVLTY | -0.408 ± 0.48 |
| REALDHWVDRVTVRWVRICI | -0.474 ± 0.35 |
| RECDKEFRQSSSCIDRRLGM | -0.156 ± 0.8 |
| REFLCCGN | 3.36 ± 0.075 |
| RERCC | inactive |
| RESARRKAYLLSKNGSNWLH | -0.249 ± 0.5 |
| RFCAMTYERLCVFVIF | 0.197 ± 0.4 |
| RFCRHRMRGILP | 1.06 ± 0.17 |
| RFEFIVMSLW | 3.19 ± 0.06 |
| RFEHGSTFGDDKL | -1.26 ± 1.1 |
| RFMHGTTCHTKYHRHLSTET | 0.766 ± 0.23 |
| RFNCHFIWNIRPEFRMNNDK | 5.61 ± 0.057 |
| RFNMMKSKQMELSN | -0.504 ± 0.46 |
| RFSCAEYVPVMT | 0.298 ± 0.56 |
| RFTALADGYRFTLSLGIVSG | 2.28 ± 0.12 |
| RFVVWRHFSWIATMLSTIPV | 1.13 ± 0.35 |
| RGAAGILFTSLIFMSVYALI | -0.104 ± 0.49 |
| RGEHRERCGDIGRYGMGRRA | 1.27 ± 0.14 |
| RGIFSSVWLLRSIMFGVGSP | -0.016 ± 0.23 |
| RGINDILRFKS | 0.494 ± 0.44 |
| RGNMTLIETALAIVQSFSNH | 9.064 ± 0.035 |
| RGREL | -1.66 ± 0.54 |
| RGSGSVMNSGYEAASRRLGG | -0.12 ± 0.46 |
| RGSRVLSFILLRISNWIFQD | -0.239 ± 0.76 |

| Substance | amyloid nucleation score |
| --- | --- |
| RGYLTAT | -0.134 ± 0.53 |
| RHFYRSKMAMVYGFHTAFTG | -0.582 ± 0.34 |
| RHGVMLGAVGVGSNDGSFLS | 2.29 ± 0.28 |
| RHSHRARKVGEWGNLCLVEK | 0.26 ± 0.21 |
| RHTSMSGCMTVIMTGCEIPR | 1.13 ± 0.39 |
| RIDVAI | -0.457 ± 0.76 |
| RIFVIVAGNYYFLAGFGYLA | -1.74 ± 0.64 |
| RIGCRRPRFDNEQQWARS | 5.62 ± 0.093 |
| RIGMPMMSAYTMGLVTDRFT | 1.06 ± 0.4 |
| RIKCRTLLGQFLMAVVIEMY | 0.309 ± 0.31 |
| RIKGSGGPNVLGWFRMVLCS | 0.284 ± 1.1 |
| RILFNRS | 0.107 ± 0.4 |
| RILFRGHSVLKNWF | -1.86 ± 0.49 |
| RILLLDLRYYCTTP | inactive |
| RINNS | -1.44 ± 0.45 |
| RINQLLTPLTWQERGP | 3.38 ± 0.06 |
| RISIPS | inactive |
| RIVGRSFYMQFGRVWDFLRS | -0.546 ± 0.61 |
| RIVMLGFVN | -1.44 ± 0.54 |
| RIYNYWTIARKFFRV | -1.24 ± 0.55 |
| RIYRRNQWVPGGDYSKGINL | -0.892 ± 0.76 |
| RKCFDRRDYIPKIGQIRMSC | -0.48 ± 0.39 |
| RKCSLVAEWTGLLLNSFVHN | 1.19 ± 0.45 |
| RKDLEVLNGLRICMVGSAPV | -0.055 ± 1.1 |
| RKDSCCSVNRCDAMSFVRGI | 0.073 ± 1.1 |
